For assay [1], the target named is T1, Mouse IL11RA (50075-M08H, SinoBiological); mouse interleukin 11 receptor alpha chain 1 (mouse, UniProt Q64385 24-367).
T1 construct: also called mIL11RA1; IL11RA1
T1 sequence (looked up): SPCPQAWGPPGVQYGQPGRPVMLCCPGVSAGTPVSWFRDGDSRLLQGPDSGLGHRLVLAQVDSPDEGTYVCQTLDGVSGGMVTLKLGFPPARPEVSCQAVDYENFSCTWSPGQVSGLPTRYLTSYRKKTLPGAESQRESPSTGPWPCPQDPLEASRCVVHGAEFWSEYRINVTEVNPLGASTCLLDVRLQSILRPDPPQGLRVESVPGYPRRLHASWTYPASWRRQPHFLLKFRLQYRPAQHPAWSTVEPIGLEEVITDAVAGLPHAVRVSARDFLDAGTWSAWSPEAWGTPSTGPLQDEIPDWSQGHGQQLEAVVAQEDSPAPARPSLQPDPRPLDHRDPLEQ
The assay can be described thus: SPR (BIAcore T200, 25 C): rmIL11 immobilized on a CM5 chip, mouse IL11RA injected as analyte (3.125 to 100 nM), 1:1 Langmuir fit. As for the experimental part: (§1) SPR measurements were performed on a BIAcore T200 (GE Healthcare) at 25° C. Buffers were degassed and filter-sterilized through 0.2 μm filters prior to use. RhIL11 or rmIl11 was immobilized onto a carboxymethylated dextran (CM5) sensor chip using standard amine coupling chemistry. For kinetic analysis, a concentration series (3.125 nM to 100 nM) of human IL11RA or mouse Il11ra was injected over the rhIL11, rmIl11 and reference surfaces at a flow rate of 40 μl min⁻¹. All the analytes were dissolved in HBS-EP+ (BR100669, GE Healthcare) containing 1 mg ml⁻¹ BSA. The association and dissociation were measured for 150 s and 200 s respectively. After each analyte injection, the surface was regenerated by a 30 s injection of Glycine pH2.5, followed by a 5 min stabilisation period. All sensorgrams were aligned and double-referenced. Affinity and kinetic constants were determined by fitting the corrected sensorgrams with the 1:1 Langmuir model using BIAevaluation v3.0 software (GE Healthcare). The equilibrium binding constant KD was determined by the ratio of the binding rate constants kd/ka.

The target of assay [2] is T1, Mouse IL11RA (50075-M08H, …). The assay can be described thus: SPR (BIAcore T200): ligand mIL11 immobilized, analyte mIL11RA, 1:1 Langmuir fit. On the procedure: as §1
The target is the same in assay [3]. Nature of the assay: SPR (BIAcore T200), IL11 immobilized on CM5, receptor as analyte, 1:1 Langmuir fit; rmIL11 (mouse ligand) on mouse IL11RA1. As for the experimental part: as §1
Assay [4] addresses T2, Human IL11RA (10252-H08H, SinoBiological) (human, UniProt Q14626 23-365).
T2 construct: also called hIL11RA
T2 sequence: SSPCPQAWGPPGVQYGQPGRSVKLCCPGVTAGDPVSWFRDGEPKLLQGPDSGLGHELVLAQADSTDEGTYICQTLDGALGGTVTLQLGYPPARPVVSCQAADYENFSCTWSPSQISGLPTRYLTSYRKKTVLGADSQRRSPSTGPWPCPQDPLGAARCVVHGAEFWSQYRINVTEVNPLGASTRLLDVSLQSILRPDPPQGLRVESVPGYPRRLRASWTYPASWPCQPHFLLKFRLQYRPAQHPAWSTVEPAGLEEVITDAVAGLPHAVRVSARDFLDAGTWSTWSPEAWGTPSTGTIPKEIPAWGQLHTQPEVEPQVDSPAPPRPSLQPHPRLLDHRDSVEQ
The assay can be described thus: SPR (BIAcore T200, 25 C): rhIL11 immobilized on a CM5 chip, human IL11RA injected as analyte (3.125 to 100 nM), 1:1 Langmuir fit. As for the experimental part: as §1

Assay [5] concerns the target T1, Mouse IL11RA (50075-M08H, …). Nature of the assay: SPR (BIAcore T200): ligand hIL11 immobilized, analyte mIL11RA, 1:1 Langmuir fit. As for the experimental part: as §1
The target is the same in assay [6]. The assay can be described thus: SPR (BIAcore T200), IL11 immobilized on CM5, receptor as analyte, 1:1 Langmuir fit; rhIL11 (human ligand) on mouse IL11RA1. On the procedure: as §1
For assay [7] the target is unchanged. Nature of the assay: SPR (BIAcore T200, 25 C): rhIL11 immobilized on a CM5 chip, mouse IL11RA injected as analyte (3.125 to 100 nM), 1:1 Langmuir fit. As for the experimental part: as §1
The target of assay [8] is T2, Human IL11RA (10252-H08H, …). The assay can be described thus: SPR (BIAcore T200): ligand hIL11 immobilized, analyte hIL11RA, 1:1 Langmuir fit. On the procedure:
as §1

B1: Recombinant mouse IL11 (rmIL11, UniProtKB: P47873, Genscript) (ligand, UniProt P47873 22-199, looked up)
chain: PGPPAGSPRVSSDPRADLDSAVLLTRSLLADTRQLAAQMRDKFPADGDHSLDSLPTLAMSAGTLGSLQLPGVLTRLRVDLMSYLRHVQWLRRAGGPSLKTLEPELGALQARLERLLRRLQLLMSRLALPQAAPDQPVIPLGPPASAWGSIRAAHAILGGLHLTLDWAVRGLLLLKTRL
notes: Amine-coupled to a CM5 chip in SPR; also called biotinylated mouse Il11
As for B1, the Kd was 94.1 nM in assay [1], 94.1 nM in assay [2] and 94 nM in assay [3]. Also, the koff in assay [2] was found to be 0.0115 s⁻¹. Moreover, the kon in assay [2] is 122000 M⁻¹ s⁻¹.

B2: Recombinant human IL11 (rhIL11, UniProtKB:P20809, Genscript) (ligand)
chain: PGPPPGPPRVSPDPRAELDSTVLLTRSLLADTRQLAAQLRDKFPADGDHNLDSLPTLAMSAGALGALQLPGVLTRLRADLLSYLRHVQWLRRAGGSSLKTLEPELGTLQARLDRLLRRLQLLMSRLALPQPPPDPPAPPLAPPSSAWGGIRAAHAILGGLHLTLDWAVRGLLLLKTRL
notes: It was amine-coupled to a CM5 chip in SPR
With B2, the Kd in assay [4] was found to be 45.3 nM; in assay [5], 72.3 nM; in assay [6] it was 72 nM; in assay [7] it was 72.3 nM; in assay [8] it was 45.3 nM. In addition, the koff in assay [5] stood at 0.012 s⁻¹; in assay [8] it was 0.0204 s⁻¹. Further, the kon in assay [5] stood at 166000 M⁻¹ s⁻¹; in assay [8], 451000 M⁻¹ s⁻¹.

The record behind these values is US20200262910A1 (SINGAPORE HEALTH SERVICES PTE, published 2020).
